{"source": "paper PMC4491233", "target": "GST-MSY3 phosphorylated in vitro by Akt (UniProt Q9JKB3)", "sequence (Q9JKB3 whole entry)": "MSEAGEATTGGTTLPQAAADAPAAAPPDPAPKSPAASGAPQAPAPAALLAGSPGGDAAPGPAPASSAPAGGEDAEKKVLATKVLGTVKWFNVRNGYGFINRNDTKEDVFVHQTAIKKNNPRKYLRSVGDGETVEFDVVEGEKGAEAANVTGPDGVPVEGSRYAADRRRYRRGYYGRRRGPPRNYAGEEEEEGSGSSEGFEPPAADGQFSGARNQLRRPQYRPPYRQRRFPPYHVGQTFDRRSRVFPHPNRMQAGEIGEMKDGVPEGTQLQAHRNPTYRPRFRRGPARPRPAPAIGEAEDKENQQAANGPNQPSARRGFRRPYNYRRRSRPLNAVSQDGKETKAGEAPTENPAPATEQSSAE", "experiment": "EMSA", "conditions": "prior phosphorylation by Akt; binding reduced more than 50%; EMSA per earlier protocol (ref 16), 8% non-denaturing polyacrylamide gel; binding buffer, pH and temperature not given. Kinase pre-treatment: 10 mM MgCl2, 2 mM …", "data": [{"sequence": "TCTTGATGTGCAGCAACAGCT (double strand) [MYOwt (myogHCE)]", "values": [{"measurement": "binding signal (% of unphosphorylated GST-MSY3)", "value": "< 50"}]}]}
